This series has as its target His6-GAPC1/2 (cytosolic glyceraldehyde-3-phosphate dehydrogenase, GAPC1 or GAPC2) (A. thaliana, UniProt P25858 1-338). Briefly: nano-DSF (thermal shift, Prometheus NT.48); plant GAPCs 0.2–0.25 mg/ml with 25 μM (GAPC1/2, GAPCP1) or 50 μM (GAPCP2) dipeptide in 1× PBS; thermal ramp 2 °C/min, 20–90 °C; Tm from F350/F330. The conditions noted are these: both partners purified.

Sequence of His6-GAPC1/2 (cytosolic glyceraldehyde-3-phosphate dehydrogenase, GAPC1 or GAPC2) (P25858 whole entry): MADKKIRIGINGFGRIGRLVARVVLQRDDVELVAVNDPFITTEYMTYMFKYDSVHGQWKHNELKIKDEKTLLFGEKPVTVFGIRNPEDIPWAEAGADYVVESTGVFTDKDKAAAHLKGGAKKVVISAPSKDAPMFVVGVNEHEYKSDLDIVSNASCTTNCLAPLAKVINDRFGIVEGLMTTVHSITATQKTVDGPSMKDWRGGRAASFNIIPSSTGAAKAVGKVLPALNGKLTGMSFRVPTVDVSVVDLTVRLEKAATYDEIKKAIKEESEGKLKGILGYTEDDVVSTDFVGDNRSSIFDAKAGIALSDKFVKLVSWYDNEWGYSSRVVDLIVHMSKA

B1: dipeptide Tyr–Asp (peptide)
peptide: YD
notes: free dipeptide Tyr–Asp, printed in three-letter code; source: synthetic peptide; bought: Eurogentec
Turning to B1, the “decrease of Tm with 25 μM Tyr–Asp” value is around 1 °C.

(Values after paper PMC6093232, “PROMIS, global analysis of PROtein–metabolite interactions using size separation in Arabidopsis thaliana” (The Journal of Biological Chemistry, 2018).)
